According to US20240415930A1, “COMPOSITIONS AND METHODS FOR ENHANCING BRAIN PERFUSION” (Washington University, priority 2021, published 2024):
Entries after “also recorded” stand apart in the source; their conditions may differ.

System: perivascular macrophages (PVMs)
Experiment: M-CSF treatment of aged mice: OVA tracer diffusion/coverage (CSF flow)
Assay type: in vivo
Description: FIG. 3U is a schematic diagram summarizing an experimental design to determine the effect of M-CSF treatment on CSF flow in aged mice.
FIG. 7D is a schematic diagram summarizing an experimental design wherein old mice were treated with M-CSF (or aCSF as a control group). Six hours after treatment, mice received OVA via ICM injection, and brains were harvested one hour after OVA diffusion.
First, it was observed that tracer diffusion in aged mice (24-month-old) was impaired compared to young/adult mice (3-month-old) (FIGS. 7A, 7B, 7C, 7D, 7E, and 7F).

B1: macrophage colony stimulating factor (protein, UniProt P07141 33-552, looked up)
Macrophage colony-stimulating …: KEVSEHCSHMIGNGHLKVLQQLIDSQMETSCQIAFEFVDQEQLDDPVCYLKKAFFLVQDIIDETMRFKDNTPNANATERLQELSNNLNSCFTKDYEEQNKACVRTFHETPLQLLEKIKNFFNETKNLLEKDWNIFTKNCNNSFAKCSSRDVVTKPDCNCLYPKATPSSDPASASPHQPPAPSMAPLAGLAWDDSQRTEGSSLLPSELPLRIEDPGSAKQRPPRSTCQTLESTEQPNHGDRLTEDSQPHPSAGGPVPGVEDILESSLGTNWVLEEASGEASEGFLTQEAKFSPSTPVGGSIQAETDRPRALSASPFPKSTEDQKPVDITDRPLTEVNPMRPIGQTQNNTPEKTDGTSTLREDHQEPGSPHIATPNPQRVSNSATPVAQLLLPKSHSWGIVLPLGELEGKRSTRDRRSPAELEGGSASEGAARPVARFNSIPLTDTGHVEQHEGSSDPQIPESVFHLLVPGIILVLLTVGGLLFYKWKWRSHRDPQTLDSSVGRPEDSSLTQDEDRQVELPV
- OVA tracer diffusion/coverage through the brain (aged (24-month-old) mice, OVA ICM six hours after ICM M-CSF, brains harvested one hour later, vs aCSF): improved tracer diffusion through the brain tissue; also recorded: increase in OVA diffusion/coverage compared to aCSF-treated mice; also recorded: improved perfusion of the brains in older mice
- state of perivascular macrophages (older mice, ICM injection): rejuvenated the perivascular macrophages
